According to US20200299370A1 (UNIVERSITY OF FLORIDA RESEARCH FOUNDATION, published 2020):

T1: phosphopeptide DRSGYSpSPGpSPGpTPGSRSR (p193-211) (human, phosphoserine at residues 7 and 10 and phosphothreonine at 13 (S199, S202, T205 of 2N/4R tau); C residue added at the carboxy-terminus)
T1 construct: Unconjugated synthetic peptide coated on ELISA plates; also called tau peptide p193-211
T1 peptide: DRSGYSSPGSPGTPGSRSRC


What was measured:
[1] = molecular target: T2, T205A 0N/3R human tau phosphorylated in vitro with p42 MAPK or GSK3β (human, UniProt P10636 2-758, phosphorylated in vitro with p42 MAPK or with GSK3β; sites not stated); assay: immunoblot, recombinant 0N/3R tau phosphorylated in vitro
T2 construct: Two preparations, one for each kinase; also called phosphorylated T205A tau
T2 sequence (P10636 other isoform, or with tags, fused parts or gaps T205A T205A limits assumed): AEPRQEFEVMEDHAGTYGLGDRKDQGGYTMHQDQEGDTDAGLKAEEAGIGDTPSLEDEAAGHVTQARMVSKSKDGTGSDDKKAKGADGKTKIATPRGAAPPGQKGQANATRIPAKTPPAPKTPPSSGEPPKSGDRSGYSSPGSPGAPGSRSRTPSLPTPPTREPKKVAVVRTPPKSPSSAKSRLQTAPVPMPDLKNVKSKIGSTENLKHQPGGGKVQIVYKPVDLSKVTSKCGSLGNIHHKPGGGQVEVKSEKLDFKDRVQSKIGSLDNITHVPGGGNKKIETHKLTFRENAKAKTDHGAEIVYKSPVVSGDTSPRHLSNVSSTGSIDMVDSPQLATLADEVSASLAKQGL
Protocol: (§1) WT, S199A, 5202A and T205A 0N/3R tau (mutants numbered according to 2N/4R human tau) were incubated with p42 MAPK or GSK3β or without any kinase as described in “Material and Methods”. […] The mobilities of molecular mass markers are shown on the left.
(§2) Tau proteins (0.2 mg/ml) were phosphorylated with either glycogen synthase kinase 3β (GSK3β; 2.5 U/μl; New England Biolabs, Ipswich, Mass.) or p42 mitogen-activated protein kinase (MAPK; 0.5 U/μl; New England Biolabs, Ipswich, Mass.) in 50 mM Tris, pH 7.5, 10 mM MgCl₂, 0.1 mM EDTA, 2 mM DTT, 0.1% Brij 35, ATP 200 μM for 2 hours at 30° C. followed by heat inactivation at 95° C. for 5 minutes. Samples were diluted in SDS-sample buffer and 100 ng of each tau protein was loaded on a separate lane on SDS-polyacrylamide gels for immunoblot analysis.
(§3) To determine the specificity of these monoclonal antibodies, WT, S199A, 5202A and T205A 0N/3R human tau (mutations numbered according to the sequence of 2N/4R human tau) were phosphorylated with p42 MAPK or GSK3β and immunoblotting analysis was performed (FIG. 3).

[2] = molecular target: T3, full-length S396A 2N/4R human tau phosphorylated in vitro with GSK3β (human, UniProt P10636 2-758, phosphorylated in vitro with GSK3β; sites not stated); assay: immunoblot, recombinant tau phosphorylated in vitro
T3 construct: Recombinant, E. coli BL21; also called S396A tau
T3 sequence (P10636 other isoform, or with tags, fused parts or gaps S396A S396A limits assumed): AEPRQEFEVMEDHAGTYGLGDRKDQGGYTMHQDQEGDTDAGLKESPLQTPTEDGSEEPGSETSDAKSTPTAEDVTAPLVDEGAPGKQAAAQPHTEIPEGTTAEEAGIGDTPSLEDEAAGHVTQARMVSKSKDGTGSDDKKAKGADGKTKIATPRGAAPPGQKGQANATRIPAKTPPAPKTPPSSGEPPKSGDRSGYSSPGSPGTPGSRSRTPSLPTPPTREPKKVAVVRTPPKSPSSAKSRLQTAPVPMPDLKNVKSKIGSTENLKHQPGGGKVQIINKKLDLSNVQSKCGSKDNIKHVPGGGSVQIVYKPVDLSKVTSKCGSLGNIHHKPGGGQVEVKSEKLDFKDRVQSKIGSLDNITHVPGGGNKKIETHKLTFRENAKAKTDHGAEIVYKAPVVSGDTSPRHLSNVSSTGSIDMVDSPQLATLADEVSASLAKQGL
Protocol: as §2
(§4) To determine the specificity of these monoclonal antibodies, full-length WT, S396A and 5404A 2N/4R human tau were in vitro phosphorylated with known tau kinases (p42 MAPK or GSK3β) and used these tau proteins for immunoblotting analysis (FIG. 1).

[3] = molecular target: T4, full-length S404A 2N/4R human tau phosphorylated in vitro with GSK3β (human, UniProt P10636 2-758, phosphorylated in vitro with GSK3β; sites not stated); assay: as above
T4 construct: Recombinant, E. coli BL21; also called S404A tau; 5404A
T4 sequence (P10636 other isoform, or with tags, fused parts or gaps S404A S404A limits assumed): as the sequence (P10636 other isoform, or with tags, fused parts or gaps S396A S396A limits assumed) above, with A395S, S403A counted along it
Protocol: as §2, §4

[4] = molecular target: T5, WT 0N/3R human tau, non-phosphorylated (incubated without any kinase) (human, UniProt P10636 2-758); assay: immunoblot, recombinant 0N/3R tau
T5 construct: Recombinant, E. coli BL21; also called non-phosphorylated tau
T5 sequence (P10636 other isoform, or with tags, fused parts or gaps limits assumed): as the sequence (P10636 other isoform, or with tags, fused parts or gaps T205A T205A limits assumed) above, with A146T counted along it
Protocol: as §1, §2, §3

[5] = molecular target: T6, WT 0N/3R human tau phosphorylated in vitro with p42 MAPK or GSK3β (human, UniProt P10636 2-758, phosphorylated in vitro with p42 MAPK or with GSK3β; T205 (2N/4R numbering) phosphorylated by both, other sites not stated); assay: immunoblot, recombinant 0N/3R tau
T6 construct: recombinant, E. coli BL21; also called phosphorylated tau
T6 sequence (P10636 other isoform, or with tags, fused parts or gaps limits assumed): as the sequence (P10636 other isoform, or with tags, fused parts or gaps T205A T205A limits assumed) above, with A146T counted along it
Protocol: as §1, §2, §3

[6] = molecular target: T1, phosphopeptide DRSGYSpSPGpSPGpTPGSRSR …; assay: ELISA, hybridoma medium on plates coated with the unconjugated immunising peptide

| binding result [1] | binding result [2] | binding result [3] | other results | Binder |
| --- | --- | --- | --- | --- |
| no binding | – | – | – | 6G12 (antibody, V domains shown) VH: EVNLEESGGGLVQPGGSMKLSCVASGFTFSDYWMNWVRQSPEKGLEWVAEIRLKSDNFATHYAESVKGRFTISRDDSKSSVYLQTNNLRAEDTGIYYCTLMRGDYGAEFAYWGQGTLAIVSA VL: DIVMSQSPSSLAVSVGEKVTLTCKSSRSLLYRGNQENFLAWYQQKPGQSPKLLIYWASTRESGVPDRFTGSGSGTDFTLTINSVKAEDLAVYYCQQYYTYPYTFGGGTKLEIKR |
| no binding | – | – | – | 10G12 (antibody, V domains shown, also called 10G2) VH: EVKLEESGGGLVQPGGSMKLSCVASGFTFSNYWMNWVRQSPETGLEWVAEIRLKSYNYATHYAESVTGRFTISRDDSKNRVYLQMNNLGPDDTGIYYCTTGGAYHPFDYWGQGTTLTVSS VL: DIVMSQSPSSLAVSVGEKVTMTCKSSQSLLYRNNQKNYLAWYQQKPGQSPKLLIYWASTRESGVPDRFTGSGSGTDFTLTISSVKAEDLAVYYCQQYYTYPYTFGGGTKLEIKR |
| no binding | – | – | – | 7F2 (antibody, V domains shown, also called clone 7F2) VH: QVQLQQSGAELVQPGGSMKLSCVASGFTFSNYWMNWVRQSPETGLEWVAEIRLKSYNYATHYAESVTGRFTISRDDSKNRVYLQMNNLGPDDTGIYYCTTGGAYHPFDYWGQGTTLTVSS VL: EIVLTQSIPSLTVSAGERVTINCKSNQNLLWSGNQRYCLVWHQWKPGQTPTPLITWTSDRYSGVPDRFIGGGSVTDFTLTISSVQAEDVALYFCQHHLHIPPWTFGGGTKLEIKR |
| – | no binding | no binding | – | PHF15 (antibody, V domains shown) VH: EVQLVESGGGSVKPGGSLKLSCAASGFTFSSYALSWVRQTPEKRLEWVASITSGGSYTYFPDSVKGRFTISRDNAKNTLYLQMSSLRSEDTAMYYCTRPGNYDGAWCAYWGQGTLVTVSS VL: DILLTQSPAILSVSPGERDSFSCRASQNIGTSIHWYQQRTNGSPRLLIKYASESISGIPSRFSGSGSGTDFTLSVNSVESEDVADYYCQQTKTWPTTFGAGTKLDLK |
| – | no binding | no binding | – | PHF2 (antibody, V domains shown) VH: EVQLVESGGGSVKPGGSLKLSCAASGFTFSSYAMSWVRQTPEKRLEWVASITRGGSYTYFPDSVKGRFTISRDNTKDTLYLQMSSLRSEDTAMYYCTRQGNYDGAWCDYWGQGTLVTVSA VL: DILLTQSPAILSVSPGERVSFSCRASQNIGTSIHWYQQRTNGSPRLLIKYTSESISGIPSRFGGSGSGTDFTLSVNGVESEDVADYYCQQTKTWPTTFGAGTKLELKR |
| – | – | – | binding result [4]: binds; binding result [5]: binds; binding result [6]: binds | 2D1 (antibody, V domains shown, also called clone 2D1) VH: EVKLVESGGGLVQPGGSLRLSCATSGFTFTDFSMNWVRQPPGKALEWLGCVRDRAEGYTTEYSASVQGRFTISRDNSQSILYLQMNTLRPEDSATYYCARERAFAYWGQGTLVTVSA VL: DIVMSQSPSSLAVSAGEKVTMSCKSSQSLLYSRNQKNYLAWYQQRPGQSPKLLIYWASSRESGVSDRFTGSGSGTDFTLTISSVKADDLAVYYCQQYYKSPLTFGAGTKLELKR |
